Bridge positions count the residues as written; N and C are the ends. Ends that are not written are not given here.
Key:
[1] = target: OP-1 receptor of ROS cells (OP-1 receptor-enriched plasma membrane fraction of ROS cells) (rat); test: radioligand receptor assay, ROS cell plasma membranes
[2] = target: OP-1 receptor of ROS cells (OP-1 receptor-enriched plasma membrane fraction of ROS cells) (rat)
[3] = target: OP-1 receptor of ROS cells (OP-1 receptor-enriched plasma membrane fraction of ROS cells) (rat); test: displacement of ^125I-soluble OP-1 from ROS cell plasma membranes
[4] = target: OP-1 receptor of ROS cells (OP-1 receptor-enriched plasma membrane fraction of ROS cells) (rat); remark: listed apart in the source
[5] = target: OP-1 receptor of ROS cells (OP-1 receptor-enriched plasma membrane fraction of ROS cells) (rat); remark: listed apart in the source
[6] = target: OP-1 receptor of ROS cells (OP-1 receptor-enriched plasma membrane fraction of ROS cells) (rat); remark: listed apart in the source
[7] = target: OP-1 receptor of ROS cells (OP-1 receptor-enriched plasma membrane fraction of ROS cells) (rat); remark: listed apart in the source
[8] = target: OP-1 receptor of ROS cells (OP-1 receptor-enriched plasma membrane fraction of ROS cells) (rat); remark: listed apart in the source

With CYFDDSSNVIC (disulfide 1-11) [Peptide F2-2] the ED50 [1] was 1 µM, the OP-1 induced cellular alkaline phosphatase activity of ROS cells, potentiation [2] was 20% and the ED50 [3] was 1 µM. The alkaline phosphatase activity of ROS cells, increase relative to soluble OP-1 alone [4] was 20%.

CLNAISVLYFDDSSNVILKKYRNMVVRC (disulfide 1-28 (inferred)) [Peptide F2-1] showed an IC50 (peptide concentration inhibiting the OP-1 induced cell response by 50%), ROS cell alkaline phosphatase [5] of 8 µM.

For CFRDLGWQDWIIAPC (disulfide 1-15) [Peptide F1-2], the concentration required to inhibit the binding of ^125I-labeled OP-1 [1] was 179 µM and the IC50 (peptide concentration giving 50% inhibition of the cell response to OP-1), ROS cell alkaline phosphatase [6] was 10 µM.

CYFDDSSNVICKKYRS (disulfide 1-11) [Peptide F2-3] showed an ED50 [1] of 10 µM, an ED50 [3] of 5 µM and an alkaline phosphatase activity of ROS cells, increase relative to soluble OP-1 alone [4] of 20%. For the same binder, the OP-1 induced cellular alkaline phosphatase activity of ROS cells, % increase in OP-1 response relative to the absence of peptide [7] was 53%.

B1: Peptide H-C2 (peptide)
peptide: CCFINPETVCC
modifications: disulfide (positions not given here); not fully specified (bridges); also: double disulfide bonds, pairing of the four Cys not given here
B1 showed a concentration at which the binding of ^125I-labeled OP-1 to the receptor was potentiated [1] of 8 µM and an IC50 (peptide concentration giving 50% inhibition of cellular responsiveness to OP-1), ROS cell alkaline phosphatase [8] of 5 µM.
